Results published in article PMC6738421, “Beta-amyloid induces apoptosis of neuronal cells by inhibition of the Arg/N-end rule pathway proteolytic activity” (Aging (Albany NY), 2019).
Values belong to the binder of their own block, whether it stands above or below them.

Molecular target: T1, Beta-amyloid peptide Aβ42
T1 construct: beta-amyloid peptide 1-42, a stretch of the amyloid precursor protein; free N-terminus [H2N] and C-terminus [COOH] as printed; Monomerised with HFIP and dissolved in DMSO; for the ITC kinetics treated with 10% NH4OH, lyophilised and resuspended in reaction buffer; source: synthetic peptide, bought: Biopeptide
Test: ELISA; sandwich ELISA: Aβ42 (1 μM) captured on immobilised anti-Aβ1-17 antibody, Ate1 added for 90 min at 37°C (30 mM KCl, 5 mM MgCl2, 15 μM Arg, 1 mM ATP, 50 mM Hepes pH 7.5), read by loss of the anti-Aβ36-42 detection antibody signal (OD450); without tRNA
Conditions: both partners purified

binding result: binds
B1: Arginyl-tRNA-protein transferase Ate1, isoform Ate1-1 (enzyme, mouse, UniProt Q9Z2A5-1 1-516, looked up)
chain: MASWSAPSPSLVEYFEGQTSFQCGYCKNKLGSRSYGMWAHSMTVQDYQDLIDRGWRRSGKYVYKPVMDQTCCPQYTIRCHPLQFQPSKSHKKVLKKMLKFLAKGEISKGNCEDEPMDSTVEDAVDGDFALINKLDIKCDLKTLSDLKGSIESEEKEKEKSIKKEGSKEFIHPQSIEEKLGSGEPSHPIKVHIGPKPGKGADLSKPPCRKAREMRKERQRLKRMQQASAAASEAQGQPVCLLPKAKSNQPKSLEDLIFQSLPENASHKLEVRVVRSSPPSPQFRATFQESYQVYKRYQMVVHKDPPDKPTVSQFTRFLCSSPLEAEHPADGPECGYGSFHQQYWLDGKIIAVGVLDILPYCVSSVYLYYDPDYSFLSLGVYSALREIAFTRQLHEKTSQLSYYYMGFYIHSCPKMRYKGQYRPSDLLCPETYVWVPIEQCLPSLDNSKYCRFNQDPEAEDEGRSKELDRLRVFHRRSAMPYGVYKNHQEDPSEEAGVLEYANLVGQKCSERMLLFRH
notes: mouse arginyl-tRNA-protein transferase Ate1, isoform Ate1-1; untagged after cleavage; also called R-transferase Ate1; arginyltransferase Ate1; source: E. coli Rosetta(DE3)pLysS, purified (Ni-NTA, Ub moiety cleaved with Usp2-cc, second Ni-NTA)

binding result: binds
B2: Arginyl-tRNA-protein transferase Ate1, isoform Ate1-3 (enzyme, mouse, UniProt Q9Z2A5-3 1-509, looked up)
chain: MASVVEYKGLKAGYYCGYCESREGKTSCGMWAHSMTVQDYQDLIDRGWRRSGKYVYKPVMDQTCCPQYTIRCHPLQFQPSKSHKKVLKKMLKFLAKGEISKGNCEDEPMDSTVEDAVDGDFALINKLDIKCDLKTLSDLKGSIESEEKEKEKSIKKEGSKEFIHPQSIEEKLGSGEPSHPIKVHIGPKPGKGADLSKPPCRKAREMRKERQRLKRMQQASAAASEAQGQPVCLLPKAKSNQPKSLEDLIFQSLPENASHKLEVRVVRSSPPSPQFRATFQESYQVYKRYQMVVHKDPPDKPTVSQFTRFLCSSPLEAEHPADGPECGYGSFHQQYWLDGKIIAVGVLDILPYCVSSVYLYYDPDYSFLSLGVYSALREIAFTRQLHEKTSQLSYYYMGFYIHSCPKMRYKGQYRPSDLLCPETYVWVPIEQCLPSLDNSKYCRFNQDPEAEDEGRSKELDRLRVFHRRSAMPYGVYKNHQEDPSEEAGVLEYANLVGQKCSERMLLFRH
notes: untagged after cleavage; also called R-transferase Ate1; arginyltransferase Ate1; source: E. coli Rosetta(DE3)pLysS, purified (Ni-NTA, Ub moiety cleaved with Usp2-cc, second Ni-NTA)
